We go through three molecules from publication PMC7815493 (Redox Biology, 2021).

Data set [1] deals with the molecule itself. In words: non-reducing SDS-PAGE and immunoblot.
The target in a further data set is T1, HMGB1:LK:CFP, P09429.
T1 chain: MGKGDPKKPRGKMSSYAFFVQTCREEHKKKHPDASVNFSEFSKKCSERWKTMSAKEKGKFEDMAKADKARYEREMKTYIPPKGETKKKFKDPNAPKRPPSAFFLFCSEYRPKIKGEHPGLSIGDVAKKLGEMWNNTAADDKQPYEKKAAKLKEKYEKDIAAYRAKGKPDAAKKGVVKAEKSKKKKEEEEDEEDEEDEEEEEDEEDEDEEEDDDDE
Nature of the data set: FRET or BRET. Particulars: remark: other sources report otherwise.

The target in data set [2] is T2, Six His-tagged HMGB1 recombinant protein, P09429.
T2 chain: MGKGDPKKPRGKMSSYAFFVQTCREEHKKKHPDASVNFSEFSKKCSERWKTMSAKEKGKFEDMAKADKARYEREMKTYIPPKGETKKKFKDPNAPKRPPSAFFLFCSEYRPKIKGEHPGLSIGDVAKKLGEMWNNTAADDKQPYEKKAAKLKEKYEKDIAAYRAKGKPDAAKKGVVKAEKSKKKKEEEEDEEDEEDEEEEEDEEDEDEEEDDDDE
To be noted: remark: other sources report otherwise.

Data set [3] has as its target T2, Six His-tagged HMGB1 recombinant …. In words: MALDI-TOF MS. Particulars: remark: other sources report otherwise.

B1: HMGB1 box B (aa 88-162) (domain or fragment, UniProt P09429 88-162, looked up)
chain: KFKDPNAPKRPPSAFFLFCSEYRPKIKGEHPGLSIGDVAKKLGEMWNNTAADDKQPYEKKAAKLKEKYEKDIAAY
As for B1, in data set [1], the binding result was “binds”.

B2: YFP:LK:HMGB1, P09429 1-215 (natural protein)
chain: MGKGDPKKPRGKMSSYAFFVQTCREEHKKKHPDASVNFSEFSKKCSERWKTMSAKEKGKFEDMAKADKARYEREMKTYIPPKGETKKKFKDPNAPKRPPSAFFLFCSEYRPKIKGEHPGLSIGDVAKKLGEMWNNTAADDKQPYEKKAAKLKEKYEKDIAAYRAKGKPDAAKKGVVKAEKSKKKKEEEEDEEDEEDEEEEEDEEDEDEEEDDDDE
Take B2: in the data set with HMGB1:LK:CFP, P09429, the FRET efficiency turned out to be 17.1%.

B3: Six His-tagged HMGB1 recombinant protein, P09429 1-215 (natural protein)
chain: MGKGDPKKPRGKMSSYAFFVQTCREEHKKKHPDASVNFSEFSKKCSERWKTMSAKEKGKFEDMAKADKARYEREMKTYIPPKGETKKKFKDPNAPKRPPSAFFLFCSEYRPKIKGEHPGLSIGDVAKKLGEMWNNTAADDKQPYEKKAAKLKEKYEKDIAAYRAKGKPDAAKKGVVKAEKSKKKKEEEEDEEDEEDEEEEEDEEDEDEEEDDDDE
For B3, the percent of molecules that are dimers in data set [2] is 70%. Also, the stoichiometry N in data set [3] is 2.

A word on the stoichiometry N: it is the number of molecules, sites or subunits per partner or assembly.
